These results are taken from article PMC3325190 (PLoS Pathogens, 2012).

The chains are these.
T1: AmrZ delta42 (Pseudomonas aeruginosa PAO1, UniProt G3XCY4 1-66)
T1 sequence: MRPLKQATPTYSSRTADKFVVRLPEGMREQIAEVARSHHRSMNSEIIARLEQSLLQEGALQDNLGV

T2: AmrZ WT (Pseudomonas aeruginosa PAO1, UniProt G3XCY4 1-108)
T2 sequence: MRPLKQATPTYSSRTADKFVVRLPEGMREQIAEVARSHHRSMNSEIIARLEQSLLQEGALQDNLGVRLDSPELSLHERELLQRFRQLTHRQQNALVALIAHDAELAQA

B1: amrZ1 18 bp crystal oligo (dsDNA)
DNA 1: ACTGGCAAAACGCCGGCA
DNA 2: TGCCGGCGTTTTGCCAGT
B2: Δ42 AmrZ (C-terminal truncation mutant of AmrZ, residues 1–66) (domain or fragment)
chain: [SeMet]RPLKQATPTYSSRTADKFVVRLPEG[SeMet]REQIAEVARSHHRS[SeMet]NSEIIARLEQSLLQEGALQDNLGV
notes: not shown: poly-Histidine, N-terminal, cleaved
B3: TTC amrZ1 (dsDNA)
DNA 1: GTACTTTCAAAACGAAGGCACG
DNA 2: CGTGCCTTCGTTTTGAAAGTAC
B4: m16 algD (dsDNA)
DNA 1: CATTGGCCATTACCATCCTCCC
DNA 2: GGGAGGATGGTAATGGCCAATG
B5: AATT amrZ1 (dsDNA)
DNA 1: GTACTGGCAATTCGCCGGCACG
DNA 2: CGTGCCGGCGAATTGCCAGTAC
B6: ATAT amrZ1 (dsDNA)
DNA 1: GTACTGGCATATCGCCGGCACG
DNA 2: CGTGCCGGCGATATGCCAGTAC
B7: WT amrZ1 (dsDNA)
DNA 1: GTACTGGCAAAACGCCGGCACG
DNA 2: CGTGCCGGCGTTTTGCCAGTAC
B8: m14 algD (dsDNA)
DNA 1: CATTGGCCATTACAAGCCTCCC
DNA 2: GGGAGGCTTGTAATGGCCAATG
B9: GTC amrZ1 (dsDNA)
DNA 1: GTACTGTCAAAACGACGGCACG
DNA 2: CGTGCCGTCGTTTTGACAGTAC
B10: TTC/GC amrZ1 (dsDNA)
DNA 1: GTACTTTCCGCGCGAAGGCACG
DNA 2: CGTGCCTTCGCGCGGAAAGTAC
B11: TTTT amrZ1 (dsDNA)
DNA 1: GTACTGGCTTTTCGCCGGCACG
DNA 2: CGTGCCGGCGAAAAGCCAGTAC
B12: m17 algD (dsDNA)
DNA 1: CATTGGCCATTACCAGACTCCC
DNA 2: GGGAGTCTGGTAATGGCCAATG
B13: m13 algD (dsDNA)
DNA 1: CATTGGCCATTAACAGCCTCCC
DNA 2: GGGAGGCTGTTAATGGCCAATG
B14: m6 algD (dsDNA)
DNA 1: CATTGTCCATTACCAGCCTCCC
DNA 2: GGGAGGCTGGTAATGGACAATG
B15: m5 algD (dsDNA)
DNA 1: CATTTGCCATTACCAGCCTCCC
DNA 2: GGGAGGCTGGTAATGGCAAATG
B16: CGCG amrZ1 (dsDNA)
DNA 1: GTACTGGCCGCGCGCCGGCACG
DNA 2: CGTGCCGGCGCGCGGCCAGTAC
B17: m7 algD (dsDNA)
DNA 1: CATTGGACATTACCAGCCTCCC
DNA 2: GGGAGGCTGGTAATGTCCAATG
B18: WT algD (dsDNA)
DNA 1: CATTGGCCATTACCAGCCTCCC
DNA 2: GGGAGGCTGGTAATGGCCAATG
B19: m8 algD (dsDNA)
DNA 1: CATTGGCAATTACCAGCCTCCC
DNA 2: GGGAGGCTGGTAATTGCCAATG

[ ]: non-standard residue; d: D form. SeMet = C[Se]CC[C@H](N)C(=O)O

One data set deals with T1, AmrZ delta42. Put plainly: X-ray crystal structure (3.1 A); 50 mM MgSO4; SeMet protein; 100 mM Bis-Tris pH 6.5, 150 mM NaCl, 5% glycerol, 100 ug/ml BSA, 100 nM nonspecific DNA, 1 nM 6-FAM 22-mer, 25 C. As to conditions: protein: recombinant; tags: N-terminal poly-His with 3C site, cleaved by PreScission; chain copies: 4.
Turning to B1, the binding result is on record as “binds”.

A further data set concerns the molecule itself. Briefly: crystal structure; Se-Met Δ42 AmrZ in complex with 18 bp amrZ1 DNA; hanging drop vapor diffusion at 25°C, 3% PEG8K, 0.1 M MES pH 6.0, 0.15 M NaCl, 2 mM TCEP, 50 mM MgSO4; 3.1 Å; dimer and dimer of dimers seen on the DNA.
Settings: not given
For the molecule B2, the stoichiometry N – broadly, a count of units in the complex or per binding partner – is 4.

The target of another data set is T2, AmrZ WT. Put plainly: fluorescence anisotropy. The conditions noted are these: protein: recombinant; tags: N-terminal poly-His with 3C site, cleaved by PreScission; chain copies: 4; blunt. Background: Polarisation of emitted light reports the rotation of a fluorescent probe.
Turning to B3, the equilibrium dissociation constant (Kd) (usually the equilibrium constant for the complex coming apart) turned out to be 109 ± 13 nM.
Same read-out and setting: for B4 the value was 203 ± 17 nM; for B5, 58.6 ± 7.5 nM.
For B6, the dissociation constant (Kd) was determined as 39.1 ± 4.6 nM.
As for B7, the dissociation constant (Kd) is 8.41 ± 0.8 nM.
On to B8, for which the Kd is 216 ± 17 nM.
As to B9, the Kd amounted to 82.7 ± 8.6 nM.
Still for that read-out and setting: the figure for B10 is 2050 ± 180 nM.
B11: the Kd was 41.7 ± 5.1 nM.
With B12, the Kd came out at 212 ± 19 nM.
The same measure, in the same setting: for B13 the value was 256 ± 20 nM; for B14, 723 ± 37 nM; for B15, 164 ± 17 nM.
As to B16, the Kd came out at 63.4 ± 7.3 nM.
In the case of B17, the Kd is 530 ± 52 nM.
As to B18, the Kd is 198 ± 14 nM.
On to B19, for which the Kd worked out at 365 ± 30 nM.
